This note sets out measurements from the supplement of paper PMC9170038.

The data set relates to MS2 coat protein. The data set can be described thus: apparent KD of MS2 coat protein; higher = weaker reporter binding. Particulars: Eterna round: R107. Put shortly:
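Normalised binding curves from single clusters were fitted, and the median fit for each design is given as apparent KD. The clusters held designed RNA switches transcribed on-chip from Illumina sequencing clusters. These were titrated with SNAP-549-labelled MS2 coat protein (twofold steps from 0.7 or 1.5 nM to 3 µM, 0.8–1.5 h to 10–20 min per step) in 100 mM Tris-HCl pH 7.5, 80 mM KCl, 4 mM MgCl2, without or with constant ligand.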

The mark [1] stands for this setting: input ligand: theophylline 20 uM.
[2] abbreviates: input ligand: theophylline 2 mM.
The mark [3] stands for this setting: input ligand: tryptophan 2.4 mM.

Regarding “CCGACAUGAGGAUCACCCAUGUGAACAGAUACCAGUCUGGUAAUAGACCCUUGGCAGCUGAACCAGGAAACUAUGGUGAUCCUGG [Theo A SS t3]”, the “apparent KD of MS2 coat protein” value (input ligand: arginine 13.2 mM) amounted to 66 nM; the “apparent KD of MS2 coat protein” value (input ligand: none) is 69.8 nM; the “apparent KD of MS2 coat protein” value under setting [1] is 89.5 nM; the “apparent KD of MS2 coat protein” value under setting [2] came to 187 nM; the “apparent KD of MS2 coat protein” value under setting [3] was found to be 83.6 nM.

As for “CCGUCACAUGAGGAUCACCCAUGUGCGGAAGGAGCGGACGAAAGUCCAGGUAGGUCGCCGUAUAGCCAAUGACCAGCAGUGUCGG [XARG-A 21]”, the “apparent KD of MS2 coat protein” value is, setting by setting: (input ligand: arginine 13.2 mM) 12.1 nM; (input ligand: none) 12.6 nM; under setting [1], 15.4 nM; under setting [2], 14.8 nM; under setting [3], 14.4 nM.

In the case of “CCUAUGCAGUCGGCCGCCACUGAACAUGAGGAUCACCCAUGUAACGGAAACGAAGAUCCUGAAAUCAGGACCGGGACUGUAUAGG [Ex Tryptophan B 3]”, the “apparent KD of MS2 coat protein” value is 92.6 nM (input ligand: arginine 13.2 mM); 154 nM (input ligand: none); 221 nM under setting [1]; 185 nM under setting [2]; 382 nM under setting [3].

For the sequence “CCUAUGCAGUCGGCCGCCACUGAACAUGAGGAUCACCCAUGUAAUUAUAAAUAUGGUCCUAAAAUCAGGACCGGGACUGUAUAGG [Ex Tryptophan B 7]”, the “apparent KD of MS2 coat protein” value by setting is: (input ligand: arginine 13.2 mM) 122 nM; (input ligand: none) 64.2 nM; under setting [1], 144 nM; under setting [2], 296 nM; under setting [3], 237 nM.

As for “CCUAUGCAGUCGGCCGCCACUGAGUCCUCAAUAAUAAAUUAAUAAACAUGAGGAUCACCCAUGUACAGGACCGGGACUGUAUAGG [Ex Tryptophan B 12]”, the “apparent KD of MS2 coat protein” value turned out to be 165 nM (input ligand: arginine 13.2 mM), 324 nM under setting [1] and 441 nM under setting [2].

As for “CCUAUGCAGUCGGCCGCCACUGAUAACGUUAUCGUUACCUCAGAAACAUGAGGAUCACCCAUGUACAGGACCGGGACUGUAUAGG [Ex Tryptophan B 19]”, the “apparent KD of MS2 coat protein” value (input ligand: arginine 13.2 mM) stood at 14.4 nM, the “apparent KD of MS2 coat protein” value under setting [1] turned out to be 14.6 nM and the “apparent KD of MS2 coat protein” value under setting [2] is 13.2 nM.

For “CCUCACAUGAGGAUCACCCAUGUCUUUACACGAGGACCGGUACGGCCGCCACUCGUUCACAAAACAACCAGAAGUGAUGCCUACA [theeternabot_sameState_MS2_Trp_A_14]”, the “apparent KD of MS2 coat protein” value came out at 80.2 nM (input ligand: arginine 13.2 mM), 183 nM under setting [1] and 214 nM under setting [2].

On to “CCUCAUGUGUAUCACCACAUGAGUGGUGAUACCAGCAUCGAAAGAUGCCCUUGGCAGCACCAACAUGAGGAUCACCCAUGUAAUA [(M)'-(T)'-(M)''-(T1)-(T2)-(M1)-(M2)_Design2]”, for which the “apparent KD of MS2 coat protein” value is, setting by setting: (input ligand: arginine 13.2 mM) 60.3 nM; under setting [1], 284 nM; under setting [3], 287 nM.

“CCUCGACAUGAGGAUCACCCAUGUAGAGAUACCAGCCUGUGAGAUGGCCCUUGGCAGCUCAUAUAGGGUACAGGAGUCGUUUUGA [Qugetila]”: the “apparent KD of MS2 coat protein” value by setting is: (input ligand: arginine 13.2 mM) 23.5 nM; under setting [1], 63.2 nM; under setting [3], 23.9 nM.

Regarding “CCUCGACAUGAGGAUCACCCAUGUAGAGAUACCAGCCUGUGAGAUGGCCCUUGGCAGCUCAUAUAGGGUACGGGAGUCGUUUCGA [Eslaqu]”, the “apparent KD of MS2 coat protein” value (input ligand: arginine 13.2 mM) worked out at 19.4 nM; the “apparent KD of MS2 coat protein” value (input ligand: none) turned out to be 22.2 nM; the “apparent KD of MS2 coat protein” value under setting [1] was found to be 48.4 nM; the “apparent KD of MS2 coat protein” value under setting [2] is 263 nM; the “apparent KD of MS2 coat protein” value under setting [3] was determined as 22.1 nM.

Take “CGAAUAUAGACGGCCGCCACUCUACAAACAUGAGGAUCACCCAUGUUCACAUAGUGGAAACACAUGAGGACCGGGUCAUAGGCUU [#19 Same State - Tryptophan B]”: the “apparent KD of MS2 coat protein” value reads like this: (input ligand: arginine 13.2 mM) 23.2 nM; under setting [1], 26.9 nM; under setting [2], 23.9 nM.

In the case of “CGAGUGAGUUCAAUCGAAUAACGGUUUUCGCGAGGACCGGUACGGCCGCCACUCGUGUGAUAUCACACAUGAGGAUCACCCAUGU [3'end-1]”, the “apparent KD of MS2 coat protein” value runs as follows: (input ligand: arginine 13.2 mM) 34.7 nM; under setting [1], 49 nM; under setting [2], 63.4 nM.

For the sequence “CGAUACAAAUAAAGCGUUCGUCCGCCAGAUACCAGAUUCAUUUCCAUCCCUUGGCAGCUGUCGACAUGAGGAUCACCCAUGUUUG [theeternabot_exclusion_MS2_Theo_A_41]”, the “apparent KD of MS2 coat protein” value reads like this: (input ligand: arginine 13.2 mM) 17.2 nM; under setting [1], 21.7 nM; under setting [3], 19.9 nM.

Turning to “CGAUAUAUACGAAGGAGCGACAUGAGGAUCACCCAUGUCUACCACGUCGAAAGACGCUCAUGUCAGGUAGGUCGCGUAUAUAUCG [Astros-Eli-mod9]”, the “apparent KD of MS2 coat protein” value stood at 56.7 nM (input ligand: arginine 13.2 mM); 137 nM (input ligand: none); 123 nM under setting [1]; 239 nM under setting [2]; 117 nM under setting [3].

On to “CGCAAGCAACAUGAGGAUCACCCAUGUGAAGGAGCGCCGAAUAAGGCAGGUAGGUCGCACAUGAAUAAAUCAUGUAAAAGCUUGC [MAT - Exclusion Arginine A - Mod of Eli - D22]”, for which the “apparent KD of MS2 coat protein” value is 33.7 nM (input ligand: arginine 13.2 mM); 62.7 nM (input ligand: none); 52.9 nM under setting [1]; 160 nM under setting [2]; 58.3 nM under setting [3].

Regarding “CGCCGAGAGGGAAGGAGCGCGAUAACAUAACAUGAGGAUCACCCAUGUAAGAAAUUAAUCAUGCAGGUAGGUCGCCCAAGCGGCG [Same State Arginine B GF 3]”, the “apparent KD of MS2 coat protein” value runs as follows: (input ligand: arginine 13.2 mM) 15 nM; (input ligand: none) 15.1 nM; under setting [1], 23.8 nM; under setting [2], 19.4 nM; under setting [3], 14.9 nM.

“CGCGGACCACCUGAUACCAGCGCAGUCAUGCAUGAACCCAACAUGAGGAUCACCCAUGUACGCCCUUGGCAGCAGGGAAAAGUCG [theeternabot_exclusion_MS2_Theo_B_8]”: the “apparent KD of MS2 coat protein” value amounted to 76.4 nM (input ligand: arginine 13.2 mM), 223 nM under setting [1] and 163 nM under setting [3].

For “CGCUACAUGAGGAUCACCCAUGUUACUCCGCGAGGACCGGUACGGCCGCCACUCGGCAGUUUGCGCCGCCGGAGGCACUCUUCAG [theeternabot_sameState_MS2_Trp_A_32]”, the “apparent KD of MS2 coat protein” value by setting is: (input ligand: arginine 13.2 mM) 20.9 nM; under setting [1], 43.6 nM; under setting [2], 33.7 nM.

With “CGGACAUGAGGAUCACCCAUGUACACUGAAGGAGCGUCGAGAACGACAGGUAGGUCGCAGGCUAAGGAAGGUGAUGCUCAAGAAG [Exclusion Arginine A GF5]”, the “apparent KD of MS2 coat protein” value by setting is: (input ligand: arginine 13.2 mM) 37.8 nM; (input ligand: none) 36.5 nM; under setting [1], 47.3 nM; under setting [2], 41.1 nM; under setting [3], 23.6 nM.

As to “CGGGCCGCUGCGGAUACCAGUUGAGCAUAGGUAGUGUAUGACAUGAGGAUCACCCAUGUUAACCCUUGGCAGCCGAGAGGGCAGA [theeternabot_exclusion_MS2_Theo_B_13]”, the “apparent KD of MS2 coat protein” value runs as follows: (input ligand: arginine 13.2 mM) 10.4 nM; (input ligand: none) 11.6 nM; under setting [1], 20.2 nM; under setting [2], 15.4 nM; under setting [3], 10.2 nM.

On to “CUAAGAGCGGCGGCCGCCACUGGUAACCGAGAGGAGGAGCUUCUGAACAUGAGGAUCACCCAUGUCAGGACCGGGUCGUCUUAGA [Same State - Tryptophan B]”, for which the “apparent KD of MS2 coat protein” value by setting is: (input ligand: arginine 13.2 mM) 15.5 nM; (input ligand: none) 13.8 nM; under setting [1], 18.5 nM; under setting [2], 14.9 nM; under setting [3], 16.6 nM.

For the sequence “CUACAUUUGUAGAAACCGGUCAACAAUAAUCGAGGACCGGUACGGCCGCCACUCGUAUAAUUUAAUACAUGAGGAUCACCCAUGU [Tryptophan A 1]”, the “apparent KD of MS2 coat protein” value (input ligand: arginine 13.2 mM) came out at 13.7 nM, the “apparent KD of MS2 coat protein” value under setting [1] was determined as 19.4 nM and the “apparent KD of MS2 coat protein” value under setting [2] worked out at 19.4 nM.

Take “CUACAUUUGUAGAAACCGGUCAACAAUAAUCGAGGACCGGUACGGCCGCCACUCGUAUAAUUUAUUACAUGAGGAUCACCCAUGU [Tryptophan A 2]”: the “apparent KD of MS2 coat protein” value stood at 13.6 nM (input ligand: arginine 13.2 mM), 16.7 nM under setting [1] and 15.4 nM under setting [2].

As to “CUAUAAAUAUGAAGGAGCGUCGAAAAUGGGUAAACAUGAGGAUCACCCAUGUAAAGGGAACGACAGGUAGGUCGCAUAUUUAUAG [AstromonsSSArgB#11]”, the “apparent KD of MS2 coat protein” value runs as follows: (input ligand: arginine 13.2 mM) 139 nM; (input ligand: none) 180 nM; under setting [1], 188 nM; under setting [2], 257 nM; under setting [3], 219 nM.

As to “CUAUGCAGGUCGGCCGCCACUACACACAUGAGGAUCACCCAUGUAGUUACUGGGUGAAGUGGCAGUAGGACCGGGACCUGCAUAC [Brourdmod10]”, the “apparent KD of MS2 coat protein” value (input ligand: arginine 13.2 mM) was 139 nM; the “apparent KD of MS2 coat protein” value (input ligand: none) was 391 nM; the “apparent KD of MS2 coat protein” value under setting [1] is 394 nM; the “apparent KD of MS2 coat protein” value under setting [2] is 817 nM; the “apparent KD of MS2 coat protein” value under setting [3] is 362 nM.

Take “CUAUUCUGUACGGCCGCCACUUCAACGUGUAAGCUGGUGGUCCACUACAUGAGGAUCACCCAUGUAAGGACCGGGUACGGCGCGG [theeternabot_exclusion_MS2_Trp_B_29]”: the “apparent KD of MS2 coat protein” value by setting is: (input ligand: arginine 13.2 mM) 12 nM; (input ligand: none) 12.5 nM; under setting [1], 16.6 nM; under setting [2], 69.4 nM; under setting [3], 40 nM.

For “CUCAUCCACGCGGCCGCCACUACUUGUAGGUGUGGGUGUGUUGUGUUACAUGAGGAUCACCCAUGUAGGACCGGGCGUGGAUGAG [Whale]”, the “apparent KD of MS2 coat protein” value reads like this: (input ligand: arginine 13.2 mM) 53.9 nM; (input ligand: none) 62.7 nM; under setting [1], 85.6 nM; under setting [2], 83.8 nM; under setting [3], 213 nM.
